# Measurements as given in paper PMC10293011 (Nature Cancer, 2023).
# Non-standard residues stand in square brackets, D forms with d. No end group written: not given here. Phe(3,5-F2) = N[C@@H](Cc1cc(F)cc(F)c1)C(=O)O
# Assays:
# Settings in all cases: both partners purified
# [1] = molecular target: T1, TEAD2 (A217–D447), YAP-binding domain, His-tagged (human, UniProt Q15562 217-447); assay: 1D 19F NMR of the free peptides; 20 μM S2, 20 μM S3 and 10 μM TEAD2 in PBS (100% D2O), pH 7.4, 298 K; displacement by addition of 55 μM compound 2, GNE-7883 or pepYAP
# T1 construct: The construct has a TEV site after the His tag; The tag is kept in the TR-FRET/HTRF assays (anti-His detection); Treated with 2.5% hydroxylamine; source: E. coli BL21 (DE3), autoinduction, purified (hydroxylamine treated, size exclusion); not shown: His6, N-terminal, kept
# T1 sequence (Q15562 217-447): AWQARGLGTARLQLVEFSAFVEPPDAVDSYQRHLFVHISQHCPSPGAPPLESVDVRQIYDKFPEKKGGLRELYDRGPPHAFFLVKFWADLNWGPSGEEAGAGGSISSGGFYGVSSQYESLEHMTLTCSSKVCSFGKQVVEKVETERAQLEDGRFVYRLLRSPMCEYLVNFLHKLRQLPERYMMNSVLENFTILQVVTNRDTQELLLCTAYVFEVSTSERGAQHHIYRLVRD
# [2] = molecular target: T2, TEAD3 (Q216–D435), YAP-binding domain, His-tagged (human, UniProt Q99594 216-435); assay: AlphaScreen or HTRF; TEAD–YAP TR-FRET: His-tagged TEAD (YAP-binding domain) with europium anti-His antibody, preincubated 30 min with small molecules; biotinylated YAP peptide (50–100) with streptavidin-XL665; 60 min, room temperature; read at 665 and 615 nm
# T2 construct: The construct has a TEV site after the His tag; treated with 2.5% hydroxylamine; source: E. coli BL21 (DE3), autoinduction, purified (hydroxylamine treated, size exclusion); not shown: His6, N-terminal, kept
# T2 sequence (Q99594 216-435): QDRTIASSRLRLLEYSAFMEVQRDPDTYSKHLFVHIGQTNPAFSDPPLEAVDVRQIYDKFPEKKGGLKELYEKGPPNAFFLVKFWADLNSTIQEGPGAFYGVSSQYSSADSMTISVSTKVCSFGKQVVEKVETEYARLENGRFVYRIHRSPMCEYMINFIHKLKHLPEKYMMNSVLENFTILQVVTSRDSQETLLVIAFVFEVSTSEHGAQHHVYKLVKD
# [3] = molecular target: T1, TEAD2 (A217–D447), YAP-binding domain, …; assay: AlphaScreen or HTRF; site 2/site 3-specific HTRF: His-tagged TEAD preincubated 30 min with compounds in 50 mM HEPES pH 7.2, 100 mM NaCl, 0.01% Tween-20, 0.5 mg/ml bovine gamma globulin, 1 mM dithiothreitol; biotinylated probe added for 60 min; europium anti-His and streptavidin-XL665; room temperature
binding result [1],also measured,Binder
binds,,"Ac-VPQTVPMRLRKLPDS[Phe(3,5-F2)]FKPPE (not fully specified, YAP residues 80–100; Phe95 is 3,5-difluoro-phenylalanine; also called peptide S3; source: synthetic peptide, bought: ABclonal) [S3, 19F-labeled YAP peptide (residues 80–100)]"
binds,,"Ac-GDSETDLEAL[Phe(3,5-F2)]NAVMNPKTANVP (not fully specified, YAP residues 59–81; Phe69 is 3,5-difluoro-phenylalanine; also called peptide S2; source: synthetic peptide, bought: ABclonal) [S2, 19F-labeled YAP peptide (residues 59–81)]"
,binding result [2]: binds,"biotinylated YAP peptide (amino acids 50–100) (peptide, UniProt P46937 50-100, looked up, biotin (position not given), YAP (Yes-associated protein), amino acids 50–100; Held by streptavidin-XL665 in the assay; also called YAP 50–100) peptide: AGHQIVHVRGDSETDLEALFNAVMNPKTANVPQTVPMRLRKLPDSFFKPPE"
,binding result [3]: binds,"KTEWNAGSVIFTYFEGDINSMVDEHFSRALRN (peptide, UniProt Q99NC0 20-51, looked up, also: biotin, position not given here, mouse vestigial-like protein 1 (Vgll1), amino acids 20–51; also called mVgll1; Vgll1 peptide) [biotinylated mouse vestigial-like protein 1 peptide, amino acids 20–51 (site 2 probe)]"
binds,,"DSETDLEALFNAVMNPKTANVPQTVPMRLRKLPDSFFKPPE (source: synthetic peptide, bought: ABclonal) [pepYAP, YAP peptide (amino acids 60–100)]"
